Molecular target: T1, POLγA A449T (UniProt P54099 26-1218, A450T)
T1 sequence: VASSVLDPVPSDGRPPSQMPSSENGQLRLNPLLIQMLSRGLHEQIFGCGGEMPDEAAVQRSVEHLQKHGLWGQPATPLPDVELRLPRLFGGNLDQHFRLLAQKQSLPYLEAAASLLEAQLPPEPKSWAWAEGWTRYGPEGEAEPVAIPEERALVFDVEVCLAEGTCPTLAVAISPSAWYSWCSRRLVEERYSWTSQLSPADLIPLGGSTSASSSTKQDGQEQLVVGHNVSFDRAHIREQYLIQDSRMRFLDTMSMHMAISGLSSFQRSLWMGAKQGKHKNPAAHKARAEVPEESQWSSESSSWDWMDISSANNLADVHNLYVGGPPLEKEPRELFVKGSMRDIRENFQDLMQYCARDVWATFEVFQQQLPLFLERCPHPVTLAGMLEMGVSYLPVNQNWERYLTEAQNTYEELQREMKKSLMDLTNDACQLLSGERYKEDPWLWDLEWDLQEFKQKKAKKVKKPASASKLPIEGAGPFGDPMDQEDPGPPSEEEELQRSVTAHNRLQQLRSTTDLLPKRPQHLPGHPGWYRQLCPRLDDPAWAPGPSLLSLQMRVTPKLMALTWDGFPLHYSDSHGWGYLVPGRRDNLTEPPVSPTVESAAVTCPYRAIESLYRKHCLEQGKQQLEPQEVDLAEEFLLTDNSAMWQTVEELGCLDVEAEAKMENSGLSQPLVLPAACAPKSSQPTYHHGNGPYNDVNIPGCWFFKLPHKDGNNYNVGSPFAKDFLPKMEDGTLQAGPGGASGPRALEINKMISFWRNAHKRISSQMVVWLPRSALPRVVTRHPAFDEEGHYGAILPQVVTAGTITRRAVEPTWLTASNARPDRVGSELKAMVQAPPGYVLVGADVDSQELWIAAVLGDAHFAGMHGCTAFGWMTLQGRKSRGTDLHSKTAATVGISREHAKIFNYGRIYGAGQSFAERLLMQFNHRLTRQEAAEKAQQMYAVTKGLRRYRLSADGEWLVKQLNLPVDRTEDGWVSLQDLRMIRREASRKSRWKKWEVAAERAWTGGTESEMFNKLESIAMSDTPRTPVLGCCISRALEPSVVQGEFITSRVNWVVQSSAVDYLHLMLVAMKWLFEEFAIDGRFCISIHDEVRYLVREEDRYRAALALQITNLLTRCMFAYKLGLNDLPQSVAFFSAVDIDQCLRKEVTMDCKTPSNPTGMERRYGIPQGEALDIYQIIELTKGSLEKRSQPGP
Assay: EMSA; POLγA alone; 10 mM MgCl2, ddGTP, dCTP, ATP; Kd in Suppl. Fig. 5A, value not in material; EMSA: 10 fmol DNA in 15 µl, 20 mM Tris-HCl pH 7.8, 1 mM DTT, 0.1 mg/ml BSA, 10 mM MgCl2, 10% glycerol, 2 mM ATP, 0.3 mM ddGTP, 3 mM dCTP, RT 10 min; 6% native PAGE 0.5x TBE
Details: protein: recombinant; label: 5'-32P on strand 2 (21-mer); 5' overhang 15 nt on strand 1; 21 bp duplex; primer-template

B1: 36-nt/21-nt primed template (mixed)
DNA 1: TTTTTTTTTTATCCGGGCTCCTCTAGACTCGACCGC
DNA 2: GCGGTCGAGTCTAGAGGAGCC
Binder B1 has a binding signal of ~3.4 fold weaker than WT.

From doi:10.1101/2020.09.10.291369, “In vivo and in vitro mechanistic characterization of a clinically relevant PolγA mutation”
